Data set [1] has as its target T1, murine CD28-Fc (mouse, UniProt P31041 20-150).
T1 sequence: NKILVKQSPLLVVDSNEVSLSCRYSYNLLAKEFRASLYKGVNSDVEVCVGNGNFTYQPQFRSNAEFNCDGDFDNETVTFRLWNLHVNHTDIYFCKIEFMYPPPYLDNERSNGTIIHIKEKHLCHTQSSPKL
Put plainly: filter binding.

Data set [2] deals with human CD28-Fc (human, UniProt P10747 19-152). Put plainly: filter binding?

human CD28-Fc, sequence (P10747 19-152): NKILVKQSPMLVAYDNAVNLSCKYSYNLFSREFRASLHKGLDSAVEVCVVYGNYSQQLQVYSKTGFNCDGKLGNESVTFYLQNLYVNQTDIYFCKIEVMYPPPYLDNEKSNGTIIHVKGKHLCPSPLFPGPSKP

B1: CD28Apt7 (monomer) (structured_RNA)
RNA: GGGAGAGAGGAAGAGGGAUGGGGAUUAGACCAUAGGCUCCCAACCCCCAUAACCCAGAGGUCGAUAGUACUGGAUCCCCCC
modifications: 2'-fluoropyrimidine (2'-F C and U)
One may read the Kd as the free concentration of one partner at which half of the binding sites on the other are occupied at equilibrium, for simple one-to-one binding. Higher therefore signals lower affinity. In the case of B1, the Kd in data set [1] worked out at 60 nM. In addition, the binding result in data set [2] is “no binding”.

Source of the values: publication PMC3696906.
